Reference: PMC6281676 (Scientific Reports, 2018)

What was measured:
[1] = Appearance of mixed solution of peptide drug and penetratin; assay type: physicochemical; settings: peptide drug 2.5 mg/mL plus L- or D-penetratin 2.0 mM in PBS pH 6.0 with 0.001% methylcellulose; visual
[2] = 15 min after 30th intranasal administration of exendin-4 1 mg/mL, L-penetratin 2 mM and insulin 8 IU/mL (1 IU/kg)
Procedure: (§1) Every morning at 10 AM, mice were anesthetized by an i.p. injection of sodium pentobarbital (50 mg/kg), and restrained in a supine position. […] The untreated control SAMP8 and SAMR1 received intranasal administration of only the vehicle (PBS pH 6.0). After each administration, mice were kept in a supine position for 15 min and then returned to their cages.

[3] = up to 60 min after 29th intranasal administration of exendin-4 and insulin with L-penetratin; tail vein, glucose meter
Procedure: as §1
Blood was obtained from the tail vein before and 15, 30, and 60 min after administration, and the blood glucose concentration was measured using a glucose meter (One Touch Ultra View, Johnson & Johnson K.K., Tokyo, Japan).

[4] = tested on: hippocampal neuronal cells; assay: Immunohistological staining of brain specimens with anti-NeuN antibody (neuronal cell counts); assay type: in vivo, SAMP8 mice; settings: after 30th intranasal administration of exendin-4 ± L-penetratin ± insulin; 38 weeks of age; n = 4–8
Procedure: At 15 min after administration, blood samples were taken from the left jugular vein. Immediately after blood withdrawal, the abdominal cavity was opened, and the intravascular content in the brain was flushed by perfusion of ice-cold PBS (pH 7.4) into the left ventricle of the heart at 5.5 mL/min for 5 min using a peristaltic pump (ATTO Corp.). Right afterwards, the brain was fixed by perfusion of ice-cold 4% PFA into the brain at 5.5 mL/min for 10 min. Subsequently, the whole brain was carefully isolated and washed with ice-cold PBS (pH 7.4) and weighed after removal of the water content.
The right side of the brain obtained as described above was immersed in 4% PFA for 24 h and then moved to ice-cold PBS (pH 7.4) and stored at 4 °C. After removing the PBS, the brain was trimmed coronally to obtain 3-mm slices at the position of Bregma −1.5 mm. […]
A thin slice at Bregma −2.0 mm was obtained and mounted on a glass slide, deparaffinized, and immersed in citrate buffer for 40 min in a water bath at 98 °C to activate the antigen. […] The stained brain tissue was observed by microscopy (Olympus BX51 and DP71), and the NeuN-positive cell numbers in the hippocampus were analyzed using WinROOF (Mitani Corp., Tokyo, Japan). […]

HAEGTFTSDVSSYLEGQAAKEFIAWLVKGR-NH2 [GLP-1, glucagon-like peptide-1, incretin peptide, synthesized by Sigma-Genosys]
appearance of solution after mixing [1]: clear

insulin: Recombinant human insulin (27.5 IU/mg), Wako
insulin level in plasma ([2]; ELISA, mean ± SEM): 41.1 ± 11.8 μU/mL | brain concentration of insulin ([2]; human insulin ultrasensitive ELISA): less than the lower detection limit | blood glucose level [3]: > 70 mg/dL | NeuN-positive hippocampal neuronal cell counts [4]: no proliferation effect
